According to publication PMC4445002, “Efficient inhibition of tumor angiogenesis and growth by a synthetic peptide blocking S100A4-methionine aminopeptidase 2 interaction” (Molecular Therapy. Methods & Clinical Development, 2015):

B1: MetAP2(1–169): truncated MetAP2, amino acids 1–169, control, expressed from retrovirus (protein, UniProt P50579 1-169, looked up, fragment)
chain: MAGVEEVAASGSHLNGDLDPDDREEGAASTAEEAAKKKRRKKKKSKGPSAAGEQEPDKESGASVDEVARQLERSALEDKERDEDDEDGDGDGDGATGKKKKKKKKKRGPKVQTDPPSVPICDLYPNGVFPKGQECEYPPTQDGRTAAWRTTSEEKKALDQASEEIWNDF
B2: MetAP2(1–229): truncated form of MetAP2, amino acids 1–229, expressed from retrovirus (protein, UniProt P50579 1-229, looked up, fragment)
chain: MAGVEEVAASGSHLNGDLDPDDREEGAASTAEEAAKKKRRKKKKSKGPSAAGEQEPDKESGASVDEVARQLERSALEDKERDEDDEDGDGDGDGATGKKKKKKKKKRGPKVQTDPPSVPICDLYPNGVFPKGQECEYPPTQDGRTAAWRTTSEEKKALDQASEEIWNDFREAAEAHRQVRKYVMSWIKPGMTMIEICEKLEDCSRKLIKENGLNAGLAFPTGCSLNNCA
B3: ECFP-MetAP2: ECFP-tagged full-length MetAP2 expressed in HeLa cells (protein)
chain: AGVEQAASFGGHLNGDLDPDDREEGTSSTAEEAAKKKRRKKKKGKGAVSAVQQELDKESGALVDEVAKQLESQALEEKERDDDDEDGDGDADGATGKKKKKKKKKRGPKVQTDPPSVPICDLYPNGVFPKGQECEYPPTQDGRTAAWRTTSEEKKALDQASEEIWNDFREAAEAHRQVRKYVMSWIKPGMTMIEICEKLEDCSRKLIKENGLNAGLAFPTGCSLNNCAAHYTPNAGDTTVLQYDDICKIDFGTHISGRIIDCAFTVTFNPKYDILLTAVKDATNTGIKCAGIDVRLCDVGEAIQEVMESYEVEIDGKTYQVKPIRNLNGHSIGPYRIHAGKTVPIVKGGEATRMEEGEVYAIETFGSTGKGVVHDDMECSHYMKNFDVGHVPIRLPRTKHLLNVINENFGTLAFCRRWLDRLGESKYLMALKNLCDLGIVDPYPPLCDIKGSYTAQFEHTILLRPTCKEVVSRGDDY
modifications: left off: ECFP, end not stated, kept
notes: ECFP-tagged full-length MetAP2 expressed in HeLa cells

How the values were obtained:
[1] = tested on: MSS31 cells; assay: DNA synthesis (BrdU uptake ELISA) in retrovirally infected cells; format: cell-based, mouse; settings: retroviral overexpression, 10% FBS and 10 μmol/l BrdU for 6 hours, OD450
Method: cDNA fragments encoding amino acids 1–169 [MetAP2(1–169)] or 1–229 [MetAP2(1–229)] of MetAP2 were PCR amplified and inserted into the multicloning site (SalI/NotI site) of the pRX-puro vector (Supplementary Figure S1).
DNA synthesis was quantified by measuring bromodeoxyuridine (BrdU) incorporation using the Cell Proliferation ELISA BrdU kit (Roche Applied Science, Penzberg, Upper Bavaria, Germany). MSS31 cells cultured for 24 hours in a medium containing 0.2% serum were stimulated with a medium containing 10% FBS and 10 μmol/l BrdU for 6 hours. The cells were harvested and BrdU uptake was measured according to the manufacturer’s protocol. Briefly, the cells were fixed, denatured, and incubated with the monoclonal anti-BrdU-peroxidase antibody. The immune complexes were then detected by the subsequent reaction with tetramethyl-benzidine. The reaction product was quantified by measuring the absorbance (OD450) using a scanning multiwell spectrophotometer.

[2] = tested on: S100A4; assay: FRET acceptor-photobleaching analysis in live HeLa cells; format: binding; settings: ECFP fusion cotransfected with EYFP-S100A4, acceptor photobleaching, n = 8–11, **P < 0.01, ***P < 0.001

| Molecule | serum-induced DNA synthesis [1] | FRET efficiency with EYFP-S100A4 vs negative controls [2] |
| --- | --- | --- |
| B1 | but not MetAP2(1–169), resulted in a marked suppression of serum-induced DNA synthesis |  |
| B2 | resulted in a marked suppression of serum-induced DNA synthesis |  |
| B3 |  | significantly higher than that of the negative controls |
